1 molecule from US20200231691A1 (Hoffmann-La Roche, published 2020) can be followed below.

The target of assay [1] is T1, murine EpCAM (murine, UniProt Q99JW5 24-315).
T1 construct: Stably expressed on CT26muEpCAM cl25 cells; also called muEpCAM; CT26muEpCAM cells
T1 sequence: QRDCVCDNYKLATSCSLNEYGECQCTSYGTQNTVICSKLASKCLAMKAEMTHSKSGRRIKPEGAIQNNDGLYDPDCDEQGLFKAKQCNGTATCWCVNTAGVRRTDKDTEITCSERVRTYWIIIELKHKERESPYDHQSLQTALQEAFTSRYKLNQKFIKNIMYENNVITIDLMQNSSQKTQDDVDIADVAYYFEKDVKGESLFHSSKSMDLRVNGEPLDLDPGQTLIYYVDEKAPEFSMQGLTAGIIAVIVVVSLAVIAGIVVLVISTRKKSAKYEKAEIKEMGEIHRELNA
In words: flow cytometry, muEpCAM+ CT26muEpCAM cells. Here is the method:
(§1) The binding to cell surface murine EpCAM was analysed using mouse EpCAM-positive CT26muEpCAM c125 cells, which stably expresses murine EpCAM. The specificity of binding was analysed by determination of binding to muEpCAM-negative cell line CT26muFAP, which stably expresses murine FAP.
(§2) For analysis of binding of the antigen binding molecules, 0.5×10⁵ CT26muEpCAM or 0.5×10⁵ CT26muFAP cells were added to wells of round-bottomed suspension cell 96-well plates (greiner bio-one, cellstar, Cat. No. 650185). For discrimination of live and dead cells, samples were stained with Zombie Aqua Viability Dye (Biolegend, Cat. No 423102) in PBS for 10 minutes at room temperature. Cells were then washed once with FACS buffer and subsequently stained for 90 minutes at 4° C. in the dark in 50 μL/well 4° C.
(§3) Plates were finally resuspended in 85 μL/well FACS-buffer and acquired the same day using 4-laser LSR-II cytometer (BD Bioscience with DIVA software).
(A flow cytometer gives signals particle by particle.)

Assay [2] has as its target T2, murine OX40 (murine, UniProt P47741 20-272).
T2 construct: also called muOX40
T2 sequence: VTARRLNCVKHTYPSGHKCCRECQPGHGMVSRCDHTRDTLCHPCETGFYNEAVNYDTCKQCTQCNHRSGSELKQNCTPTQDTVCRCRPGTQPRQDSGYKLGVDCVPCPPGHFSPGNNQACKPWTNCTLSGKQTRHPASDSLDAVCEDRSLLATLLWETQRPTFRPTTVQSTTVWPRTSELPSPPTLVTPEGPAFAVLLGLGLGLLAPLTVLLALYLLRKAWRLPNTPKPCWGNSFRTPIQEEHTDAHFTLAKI
As to the kind of experiment: flow cytometry, activated murine OX40+ CD4+ T cells. Here is the method: (§4) For labeling cells were harvested, washed with pre-warmed (37° C.) DPBS and adjusted to a cell density of 1×10⁷ cells/mL in DPBS. eFluor670 cell proliferation dye (eBioscience, Cat.-No. 65-0840-85) was added to the suspension of naïve splenocytes at a final concentration of 2.5 μM and a final cell density of 0.5×10⁷ cells/mL in DPBS. Cells were then incubated for 10 min at room temperature in the dark. To stop labeling reaction, 4 mL heat inactivated FBS were added and cells were washed three times with T cell medium. A mixture of 1×10⁵ resting eFluor670 labeled splenocytes and 1×10⁵ unlabeled activated splenocytes were then added to wells of round-bottomed suspension 96-well plates (Greiner bio-one, cellstar, Cat. No. 650185).
(§5) For discrimination between live and dead cells, samples were stained with Zombie Aqua Viability Dye (Biolegend, Cat. No. 423102) in DPBS for 10 minutes at room temperature. Cells were then washed once with FACS buffer and subsequently stained for 90 minutes at 4° C. in the dark in 50 μL/well 4° C. […] After washing three times with excess FACS buffer, cells were stained for 30 minutes at 4° C. in the dark in 25 μL/well 4° C.
(§6) Plates were finally resuspended in 85 μL/well FACS buffer and acquired the same day using 4-laser LSR-II cytometer (BD Bioscience with DIVA software).

Assay [3] deals with T2, murine OX40. In words: flow cytometry, activated murine OX40+ CD8+ T cells. Here is the method: as §4, §5, §6
Assay [4] concerns the target T3, murine FAP (murine, UniProt P97321 1-761).
T3 construct: whole, on cells; CT26muFAP served as the muEpCAM-negative specificity control cell line; also called muFAP; CT26muFAP cells
T3 sequence (looked up): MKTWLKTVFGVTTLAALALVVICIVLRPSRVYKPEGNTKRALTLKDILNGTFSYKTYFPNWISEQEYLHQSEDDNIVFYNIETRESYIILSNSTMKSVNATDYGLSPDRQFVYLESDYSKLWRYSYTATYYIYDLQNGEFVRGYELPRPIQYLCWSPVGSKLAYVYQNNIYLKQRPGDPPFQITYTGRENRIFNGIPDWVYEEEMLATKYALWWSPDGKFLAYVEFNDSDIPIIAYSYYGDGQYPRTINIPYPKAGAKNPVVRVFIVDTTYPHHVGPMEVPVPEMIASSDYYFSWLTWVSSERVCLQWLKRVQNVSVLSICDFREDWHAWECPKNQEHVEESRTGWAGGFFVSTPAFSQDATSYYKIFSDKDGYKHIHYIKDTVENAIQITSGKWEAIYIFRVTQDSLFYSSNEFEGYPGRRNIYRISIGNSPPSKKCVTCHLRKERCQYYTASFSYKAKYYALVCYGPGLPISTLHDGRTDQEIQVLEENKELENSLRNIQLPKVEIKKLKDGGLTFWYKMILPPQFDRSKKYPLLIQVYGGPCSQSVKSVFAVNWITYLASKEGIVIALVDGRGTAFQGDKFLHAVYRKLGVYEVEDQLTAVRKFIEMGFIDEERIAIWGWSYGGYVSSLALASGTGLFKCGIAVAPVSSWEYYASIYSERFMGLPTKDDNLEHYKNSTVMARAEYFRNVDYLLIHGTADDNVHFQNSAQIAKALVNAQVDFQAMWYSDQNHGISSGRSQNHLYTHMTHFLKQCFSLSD
As to the kind of experiment: flow cytometry on CT26muFAP cells, which stably express murine FAP. Here is the method:
as §1, §2, §3

B1: bispecific, tetravalent anti-murine OX40, monovalent anti-murine EpCAM 4+1 molecule (muOX40 OX86/muEpCAM G8.8 DAPG 4+1) (bispecific antibody, mouse IgG1, kappa)
heavy 1: QVQLKESGPGLVQPSQTLSLTCTVSGFSLTGYNLHWVRQPPGKGLEWMGRMRYDGDTYYNSVLKSRLSISRDTSKNQVFLKMNSLQTDDTAIYYCTRDGRGDSFDYWGQGVMVTVSSAKTTPPSVYPLAPGSAAQTNSMVTLGCLVKGYFPEPVTVTWNSGSLSSGVHTFPAVLQSDLYTLSSSVTVPSSTWPSQTVTCNVAHPASSTKVDKKIVPRDCGGGGSGGGGSQVQLKESGPGLVQPSQTLSLTCTVSGFSLTGYNLHWVRQPPGKGLEWMGRMRYDGDTYYNSVLKSRLSISRDTSKNQVFLKMNSLQTDDTAIYYCTRDGRGDSFDYWGQGVMVTVSSAKTTPPSVYPLAPGSAAQTNSMVTLGCLVKGYFPEPVTVTWNSGSLSSGVHTFPAVLQSDLYTLSSSVTVPSSTWPSQTVTCNVAHPASSTKVDKKIVPRDCGCKPCICTVPEVSSVFIFPPKPKDVLTITLTPKVTCVVVAISKDDPEVQFSWFVDDVEVHTAQTKPREEQINSTFRSVSELPIMHQDWLNGKEFKCRVNSAAFGAPIEKTISKTKGRPKAPQVYTIPPPKEQMAKDKVSLTCMITNFFPEDITVEWQWNGQPAENYDNTQPIMDTDGSYFVYSDLNVQKSNWEAGNTFTCSVLHEGLHNHHTEKSLSHSPGGGGGSGGGGSGGGGSGGGGSDIQMTQSPASLSASLGETVSIECLASEGISNDLAWYQQKSGKSPQLLIYATSRLQDGVPSRFSGSGSGTRYSLKISGMQPEDEADYFCQQSYKYPWTFGGGTKLELK
heavy 2: QVQLKESGPGLVQPSQTLSLTCTVSGFSLTGYNLHWVRQPPGKGLEWMGRMRYDGDTYYNSVLKSRLSISRDTSKNQVFLKMNSLQTDDTAIYYCTRDGRGDSFDYWGQGVMVTVSSAKTTPPSVYPLAPGSAAQTNSMVTLGCLVKGYFPEPVTVTWNSGSLSSGVHTFPAVLQSDLYTLSSSVTVPSSTWPSQTVTCNVAHPASSTKVDKKIVPRDCGGGGSGGGGSQVQLKESGPGLVQPSQTLSLTCTVSGFSLTGYNLHWVRQPPGKGLEWMGRMRYDGDTYYNSVLKSRLSISRDTSKNQVFLKMNSLQTDDTAIYYCTRDGRGDSFDYWGQGVMVTVSSAKTTPPSVYPLAPGSAAQTNSMVTLGCLVKGYFPEPVTVTWNSGSLSSGVHTFPAVLQSDLYTLSSSVTVPSSTWPSQTVTCNVAHPASSTKVDKKIVPRDCGCKPCICTVPEVSSVFIFPPKPKDVLTITLTPKVTCVVVAISKDDPEVQFSWFVDDVEVHTAQTKPREEQINSTFRSVSELPIMHQDWLNGKEFKCRVNSAAFGAPIEKTISKTKGRPKAPQVYTIPPPKKQMAKDKVSLTCMITNFFPEDITVEWQWNGQPAENYKNTQPIMKTDGSYFVYSKLNVQKSNWEAGNTFTCSVLHEGLHNHHTEKSLSHSPGGGGGSGGGGSGGGGSGGGGSEVQLAESGGGLVQPGRSMKLSCAASGFTFSNFPMAWVRQAPTKGLEWVATISTSGGSTYYRDSVKGRFTISRDNAKSTLYLQMNSLRSEDTATYYCTRTLYILRVFYFDYWGQGVMVTVSS
light: DIVMTQGALPNPVPSGESASITCRSSQSLVYKDGQTYLNWFLQRPGQSPQLLTYWMSTRASGVSDRFSGSGSGTYFTLKISRVRAEDAGVYYCQQVREYPFTFGSGTKLEIKRADAAPTVSIFPPSSEQLTSGGASVVCFLNNFYPKDINVKWKIDGSERQNGVLNSWTDQDSKDSTYSMSSTLTLTKDEYERHNSYTCEATHKTSTSPIVKSFNRNEC
notes: muIgG1 DAPG with DDKK heterodimerisation; also called 4+1 muEpCAM; 4 + 1 anti-muOX40, anti-muEpCAM
As a reminder, the EC50 is the concentration at which the effect is half-maximal. A high value points to lower potency in that assay. With B1, the EC50 in assay [1] came out at 82.5 nM; in assay [2], 1.47 nM; in assay [3], 0.82 nM. Besides, the binding result in assay [4] is “no binding”.
